Data: patent publication US20240132578A1

Assays:
[1] = biological target: HIV-1 Env of isolate TRO.11 (HIV-1); experiment: cell-based or functional assay
[2] = biological target: HIV-1 Env of pseudovirus MGRM-F1-012 (clade F) (HIV-1); experiment: cell-based or functional assay
[3] = biological target: HIV-1 Env of isolate 98IN022 (HIV-1); experiment: cell-based or functional assay
[4] = biological target: HIV-1 Env of isolate 93MW959 (HIV-1); experiment: cell-based or functional assay
[5] = biological target: HIV-1 Env of isolate THR0.18 (HIV-1); experiment: cell-based or functional assay
[6] = biological target: HIV-1 Env of isolate VLGCB3 (HIV-1); experiment: cell-based or functional assay
[7] = biological target: HIV-1 92RW020 Env (HIV-1); experiment: cell-based or functional assay
[8] = biological target: HIV-1 Env of isolate 93IN905 (HIV-1); experiment: cell-based or functional assay
[9] = biological target: HIV-1 Env of isolate MGRM-AE-006 (pseudovirus) (HIV-1); experiment: cell-based or functional assay
[10] = biological target: HIV-1 MGRM-G-009 Env (pseudovirus) (HIV-1); experiment: cell-based or functional assay
[11] = biological target: HIV-1 envelope glycoprotein (Env) of isolate MGRM-C-019 (HIV-1); experiment: cell-based or functional assay
[12] = biological target: HIV-1 Env of isolate 97ZA012 (HIV-1); experiment: cell-based or functional assay
[13] = biological target: HIV-1 Env of isolate SC422661.8 (HIV-1); experiment: cell-based or functional assay
[14] = biological target: HIV-1 Env of isolate MGRM-AE-005 (pseudovirus) (HIV-1); experiment: cell-based or functional assay
[15] = biological target: HIV-1 Env of isolate PVO.4 (HIV-1); experiment: cell-based or functional assay
[16] = biological target: HIV-1 Env of isolate MGRM-AE-004 (pseudovirus) (HIV-1); experiment: cell-based or functional assay
[17] = biological target: HIV-1 Env of isolate MGRM-Chronic-B-024 (HIV-1); experiment: cell-based or functional assay
[18] = biological target: HIV-1 Env of isolate TRJ04551.58 (HIV-1); experiment: cell-based or functional assay
[19] = biological target: WT JR-FL gp120 (HIV-1 JR-FL); experiment: ELISA, antigen-coated wells, mAb titrated; EC50 by nonlinear regression
[20] = biological target: JR-FL gp120 ΔV1/ΔV2 (HIV-1 JR-FL); experiment: as above
[21] = biological target: HIV-1 envelope glycoprotein (Env) of isolate 94 KE 105, subtype AC (HIV-1); experiment: cell-based or functional assay
[22] = biological target: HIV-1 envelope glycoprotein (Env) of isolate 93IN905, on pseudovirus (HIV-1); experiment: cell-based or functional assay
[23] = biological target: HIV-1 envelope glycoprotein (Env) of isolate VLGCB3, on pseudovirus (HIV-1); experiment: cell-based or functional assay

1496_C09 (PG9) (TCN-109) (antibody)
IC50 (µg/mL), pseudovirus neutralization [1]: 16.9 µg/mL
IC50 [2]: 0.01 µg/mL
IC50 (µg/mL), pseudovirus neutralization [3]: 0.003 µg/mL
IC50 (µg/mL), pseudovirus neutralization [4]: 0.054 µg/mL
IC50 (µg/mL), pseudovirus neutralization [5]: 26.4 µg/mL
IC50 (µg/mL), pseudovirus neutralization [6]: 0.022 µg/mL
IC50, pseudovirus neutralization [7]: 0.161 µg/mL
IC50 (µg/mL), pseudovirus neutralization [8]: 0.035 µg/mL
IC50 (µg/mL), pseudovirus neutralization [9]: 0.063 µg/mL
IC50 (µg/ml), pseudovirus neutralization [10]: 4.9 µg/mL
IC50 (µg/ml), pseudovirus neutralization [11]: 0.01 µg/mL
IC50 (µg/mL), pseudovirus neutralization [12]: 3.4 µg/mL
IC50 (µg/mL), pseudovirus neutralization [13]: 1.48 µg/mL
IC50 (µg/mL), pseudovirus neutralization [14]: 0.282 µg/mL
IC50 (µg/mL), pseudovirus neutralization [15]: 24.8 µg/mL
IC50 (µg/mL), pseudovirus neutralization [16]: 0.009 µg/mL
IC50 (µg/mL), pseudovirus neutralization [17]: 0.222 µg/mL
IC50 (µg/mL), pseudovirus neutralization [18]: 0.858 µg/mL

4838_L06 (PGT-121) (antibody)
EC50 [19]: 0.2 µg/mL
EC50 [20]: 0.2 µg/mL
IC50, pseudovirus neutralization [21]: 0.029 µg/mL
IC50, pseudovirus neutralization [22]: 0.005 µg/mL
IC50, pseudovirus neutralization [23]: 0.005 µg/mL

4858_P08 (PGT-123) (antibody)
EC50 [19]: 0.2 µg/mL
EC50 [20]: 0.3 µg/mL
IC50, pseudovirus neutralization [21]: 0.024 µg/mL
IC50, pseudovirus neutralization [22]: 0.004 µg/mL
IC50, pseudovirus neutralization [7]: 0.0038 µg/mL
IC50 (µg/mL), pseudovirus neutralization [9]: > 50 µg/mL
IC50 (µg/mL), pseudovirus neutralization [14]: > 50 µg/mL
IC50 (µg/mL), pseudovirus neutralization [16]: > 50 µg/mL
IC50, pseudovirus neutralization [23]: 0.004 µg/mL

4877_D15 (PGT-122) (antibody)
EC50 [19]: 0.3 µg/mL
EC50 [20]: 0.3 µg/mL
IC50, pseudovirus neutralization [21]: 0.056 µg/mL
IC50, pseudovirus neutralization [22]: 0.013 µg/mL
IC50, pseudovirus neutralization [7]: 0.0072 µg/mL
IC50 (µg/mL), pseudovirus neutralization [9]: > 50 µg/mL
IC50 (µg/mL), pseudovirus neutralization [14]: > 50 µg/mL
IC50 (µg/mL), pseudovirus neutralization [16]: > 50 µg/mL
IC50, pseudovirus neutralization [23]: 0.008 µg/mL

5123_A06 (PGT-125) (antibody)
EC50 [19]: 0.2 µg/mL
EC50 [20]: 0.6 µg/mL
IC50, pseudovirus neutralization [21]: 0.004 µg/mL
IC50, pseudovirus neutralization [22]: 0.009 µg/mL
IC50, pseudovirus neutralization [7]: 0.0028 µg/mL
IC50 (µg/mL), pseudovirus neutralization [9]: 0.009 µg/mL
IC50 (µg/mL), pseudovirus neutralization [14]: 0.01 µg/mL
IC50 (µg/mL), pseudovirus neutralization [16]: > 50 µg/mL
IC50, pseudovirus neutralization [23]: 0.015 µg/mL

5141_B17 (PGT-126) (antibody)
EC50 [19]: 0.1 µg/mL
EC50 [20]: 0.3 µg/mL
IC50, pseudovirus neutralization [21]: 0.006 µg/mL
IC50, pseudovirus neutralization [22]: 0.015 µg/mL
IC50, pseudovirus neutralization [7]: 0.0046 µg/mL
IC50 (µg/mL), pseudovirus neutralization [9]: 17.3 µg/mL
IC50 (µg/mL), pseudovirus neutralization [14]: 0.324 µg/mL
IC50 (µg/mL), pseudovirus neutralization [16]: > 50 µg/mL
IC50, pseudovirus neutralization [23]: 0.007 µg/mL
